# What was measured:
# [1] = target: human HER3 (purchased from Acro Bio) (human, UniProt P21860 20-643); test: BLI (Octet384), antibody captured on AHC tips, HER3 (Acro Bio) 0-100 nM in solution, global 1:1 fit
# [2] = target: T1, His-tagged human EGFR (expressed/purified in-house) (human, UniProt P00533 25-645, limits assumed); test: BLI (Octet384), antibody captured on AHC tips, His-tagged EGFR 0-100 nM in solution, global 1:1 fit
# T1 construct: Made in-house; also called ErbB1; HER1; not shown: His tag
Kd [1] [nM],Response [1],koff [1] [s⁻¹],kon [1] [M⁻¹ s⁻¹],Kd [2] [nM],Response [2],koff [2] [s⁻¹],kon [2] [M⁻¹ s⁻¹],Binder
151,0.294,0.0308,204000,11.4,0.194,0.000627,55100,"SI-1X26 (bispecific antibody, scFv on the C-terminus of the light chain; also called EGFRxHER3 bispecific antibody; nimotuzumab-based bispecific antibody) heavy: not shown light: DIQMTQSPSSLSASVGDRVTITCRSSQNIVHSNGNTYLDWYQQTPGKAPKLLIYKVSNRFSGVPSRFSGSGSGTDFTFTISSLQPEDIATYYCFQYSHVPWTFGCGTKLQITRTVAAPSVFIFPPSDEQLKSGTASVVCLLNNFYPREAKVQWKVDNALQSGNSQESVTEQDSKDSTYSLSSTLTLSKADYEKHKVYACEVTHQGLSSPVTKSFNRGECGGGGSGGGGSGGGGSQVQLQESGGGLVKPGGSLSLSCAASGFTFSSYWMSWVRQAPGKGLEWVANINRDGSASYYVDSVKGRFTISRDDAKNSLYLQMNSLRAEDTAVYYCARDRGVGYFDLWGRGTLVTVSSGGGGSGGGGSGGGGSQSALTQPASVSGSPGQSITISCTGTSSDVGGYNFVSWYQQHPGKAPKLMIYDVSDRPSGVSDRFSGSKSGNTASLIISGLQADDEADYYCSSYGSSSTHVIFGGGTKVTVL"
156,0.264,0.0281,180000,23.8,0.171,0.00171,71600,"SI-1X4 (bispecific antibody, Tetravalent IgG-scFv: anti-EGFR Fab with nimotuzumab variable regions, anti-HER3 scFv at the C-terminus of the heavy chain; also called EGFRxHER3 bispecific antibody; nimotuzumab-based bispecific antibody) heavy: not shown light: DIQMTQSPSSLSASVGDRVTITCRSSQNIVHSNGNTYLDWYQQTPGKAPKLLIYKVSNRFSGVPSRFSGSGSGTDFTFTISSLQPEDIATYYCFQYSHVPWTFGQGTKLQITRTVAAPSVFIFPPSDEQLKSGTASVVCLLNNFYPREAKVQWKVDNALQSGNSQESVTEQDSKDSTYSLSSTLTLSKADYEKHKVYACEVTHQGLSSPVTKSFNRGEC"
